Laboratory results reported in patent US20170240645A1 (Genentech, published 2017).
Blank lines part the entries; values can stand above or below the binder they belong to.

Legend:
[1] = target: T1, human PMEL17 (human, UniProt P40967 25-661); test: FACS screen of hybridoma clones
T1 construct: Untagged PMEL17 as it occurs on melanoma cell lines, normal human melanocytes, PC3 cells stably expressing PMEL17 cDNA, and in human tissue sections; also called Melanocyte protein PMEL17
T1 sequence: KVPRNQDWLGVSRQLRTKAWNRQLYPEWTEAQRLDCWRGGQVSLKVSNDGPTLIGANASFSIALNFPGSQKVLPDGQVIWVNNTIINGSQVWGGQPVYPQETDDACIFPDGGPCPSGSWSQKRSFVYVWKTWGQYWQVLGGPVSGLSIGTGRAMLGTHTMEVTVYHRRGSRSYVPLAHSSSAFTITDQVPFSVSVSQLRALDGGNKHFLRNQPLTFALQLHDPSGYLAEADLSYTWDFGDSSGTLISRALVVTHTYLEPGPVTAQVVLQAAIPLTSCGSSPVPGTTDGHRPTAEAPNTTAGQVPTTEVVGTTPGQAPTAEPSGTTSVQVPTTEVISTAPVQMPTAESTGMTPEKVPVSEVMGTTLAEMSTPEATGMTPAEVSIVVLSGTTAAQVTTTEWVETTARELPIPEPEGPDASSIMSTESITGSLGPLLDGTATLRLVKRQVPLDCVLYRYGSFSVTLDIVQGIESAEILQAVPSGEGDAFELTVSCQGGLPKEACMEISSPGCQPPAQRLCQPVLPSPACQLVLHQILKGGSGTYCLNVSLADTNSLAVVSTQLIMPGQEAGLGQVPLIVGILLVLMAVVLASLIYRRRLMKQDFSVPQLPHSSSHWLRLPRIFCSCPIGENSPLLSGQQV

[2] = target: T2, endothelin B receptor (ETBR) (UniProt P24530 27-442, limits assumed); test: cell-based or functional assay
T2 sequence (looked up): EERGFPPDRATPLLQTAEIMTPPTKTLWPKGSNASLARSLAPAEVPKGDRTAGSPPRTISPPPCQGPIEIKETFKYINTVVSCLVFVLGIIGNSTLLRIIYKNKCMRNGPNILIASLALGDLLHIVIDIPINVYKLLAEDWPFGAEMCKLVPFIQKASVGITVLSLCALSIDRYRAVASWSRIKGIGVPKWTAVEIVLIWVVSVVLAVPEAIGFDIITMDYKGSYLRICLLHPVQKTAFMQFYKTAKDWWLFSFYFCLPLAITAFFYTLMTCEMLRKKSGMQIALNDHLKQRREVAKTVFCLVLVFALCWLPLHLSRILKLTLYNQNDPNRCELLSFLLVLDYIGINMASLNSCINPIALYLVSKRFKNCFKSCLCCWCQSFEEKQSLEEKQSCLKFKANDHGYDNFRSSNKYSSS

[3] = target: T1, human PMEL17; test: flow cytometry on parental and in vivo-derived resistant UACC-257X2.2 melanoma cells, detected with anti-human Alexa 488 conjugate; control peak is secondary antibody only
Experimental: Expression of ETBR and PMEL17 on the surface of the in vivo- and in vitro-derived resistant UACC-257X2.2 cells and the parental UACC-257X2.2 cells was then determined by FACS. Cells were stained with anti-ETBR antibody (hu5E9.v1 or ch5E9) or with anti-PMEL17 antibody (ch17A9), followed by an anti-human Alexa 488 antibody conjugate. […] Surface expression of PMEL17 was unchanged in the resistant cells as compared to the parental cells.

binding result [1]: binds
B1: 15F2 (antibody, V domains shown)
VH: QVQLKESGPGLVAPSQSLSITCTVSGFSLTKYGVHWVRQPPGKGLEWLGVIWAGGNTNYNSALMSRLSINKDNSKSQVFLKMNSLQTDDTAMYYCATFDVWGAGTTVTVSS
VL: DIVMTQAAPSVPVTPGESVSISCRSSKSLLHSNGNTFLYWFLQRPGQSPQLLIYRMSNLVSGVPDRFSGSGSGTAFTLRISRVEAEDVGFYYCMQHLEYPYTFGGGTKLELK
notes: Mouse monoclonal antibody from a hybridoma

B2: anti-ETBR-PNU (ch5E9 conjugated to MC-PNU-159682 through a non-cleavable linker) (antibody, human IgG1, kappa, V domains shown)
VH: QVQLLQSGAELARPGASVKLSCKASGYTFTSYWMQWVKQRPGQGLEWIGTIYPGDGDTSYAQKFKGKATLTTDKYSSTAYMQLSSLASEDSAVYYCARWGYAYDIDNWGQGTLVTVSS
VL: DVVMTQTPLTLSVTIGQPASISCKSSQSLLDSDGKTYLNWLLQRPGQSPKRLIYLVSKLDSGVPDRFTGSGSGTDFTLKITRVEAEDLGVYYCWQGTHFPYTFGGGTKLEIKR
modifications: MC-PNU-159682 on reduced cysteine residues of the antibody
EC50 of cell survival (CellTiter-Glo), in vitro derived resistant UACC-257X2.2 cells [2]: 14.6 ng/mL | EC50 of cell survival (CellTiter-Glo), in vivo derived resistant UACC-257X2.2 cells [2]: 14.3 ng/mL | EC50 of cell survival (CellTiter-Glo), parental UACC-257X2.2 cells [2]: 4.2 ng/mL

binding result [3]: binds
B3: ch17A9 (antibody, human IgG1, kappa, V domains shown)
VH: EVQLQQSGPELVKPGASMKISCKSSGYSFTRYTMNWVKQSHGKNLEWIGVINPYNGGTVYNQKFKGKATLTVDKSSSTAYMELLSLTSEDSAVYYCARTDYDGYAMDYWGQGTSVTVSS
VL: DVQITQSPSYLAASPGETITINCRATKSISKYLAWYQEQPGKTNNLLIYSGSTLQSGIPSRFSGSGSGTDFTLTISSLEPEDFAMYYCQQHNEYPYTFGSGTKLEIKR
notes: also called chimeric 17A9

binding result [1]: binds
B4: 8G3 (antibody, V domains shown)
VH: EVQLQQSGPELVKPGASMRISCKASGYSFTGYTMNWVKQSHGKNLEWIGVYNPYNGGTVYNQKFKGKATLTVDKSSSTTYMELLSLTSEDSAVYYCARTDSGGYAMDCWGQGTSVTVSS
VL: DVQITQSPSYLDASPGETITINCRASKTISKYLAWYQEKPGKTNKLLIYSGSTLQSGIPSRFSGSGSGTDFTLTISSLEPEDFAMYYCQQHNEYPYTFGSGTKLEIK
notes: as for B1
